From article doi:10.1101/483925
Read-outs that look alike come from different tables or passages of the source.

What was measured:
Assay in all cases: EMSA
[1] = target: T1, FD T282E full-length (Arabidopsis thaliana, UniProt Q84JK2 1-285, T282E)
T1 sequence: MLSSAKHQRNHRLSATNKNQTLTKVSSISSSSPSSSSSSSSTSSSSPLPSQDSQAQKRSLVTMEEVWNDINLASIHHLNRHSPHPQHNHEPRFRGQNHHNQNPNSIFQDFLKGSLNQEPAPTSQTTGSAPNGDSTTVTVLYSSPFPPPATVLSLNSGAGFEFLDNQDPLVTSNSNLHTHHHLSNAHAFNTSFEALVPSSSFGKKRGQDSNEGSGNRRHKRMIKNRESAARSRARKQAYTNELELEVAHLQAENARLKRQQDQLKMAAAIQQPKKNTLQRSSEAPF

[2] = target: T2, FD full-length (Arabidopsis thaliana, UniProt Q84JK2 1-285)
T2 sequence: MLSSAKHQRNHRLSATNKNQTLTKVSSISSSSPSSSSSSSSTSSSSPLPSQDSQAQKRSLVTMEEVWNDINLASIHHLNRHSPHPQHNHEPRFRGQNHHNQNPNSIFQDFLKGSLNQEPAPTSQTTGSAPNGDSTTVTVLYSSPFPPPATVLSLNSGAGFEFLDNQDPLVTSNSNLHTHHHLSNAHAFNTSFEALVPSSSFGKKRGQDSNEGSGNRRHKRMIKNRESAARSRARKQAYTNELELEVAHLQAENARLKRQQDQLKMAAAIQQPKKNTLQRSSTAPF

[3] = target: T3, FD-C_T282E;14-3-3nu (GRF7) (Arabidopsis thaliana;Arabidopsis …, UniProt Q84JK2;Q96300 203-285;1-265, T282E|)
T3 sequence 1: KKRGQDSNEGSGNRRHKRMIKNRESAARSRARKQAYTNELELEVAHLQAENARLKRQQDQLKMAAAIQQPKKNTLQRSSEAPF
T3 sequence 2: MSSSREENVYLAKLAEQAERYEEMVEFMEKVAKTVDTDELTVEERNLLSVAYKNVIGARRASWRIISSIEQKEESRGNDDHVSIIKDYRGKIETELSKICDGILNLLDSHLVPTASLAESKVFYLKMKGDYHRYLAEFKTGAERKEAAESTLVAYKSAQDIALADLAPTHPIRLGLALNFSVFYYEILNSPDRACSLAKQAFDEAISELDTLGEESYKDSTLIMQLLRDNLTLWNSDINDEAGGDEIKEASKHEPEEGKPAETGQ

[4] = target: T4, FD-C_T282E (Arabidopsis thaliana, UniProt Q84JK2 203-285, T282E)
T4 sequence: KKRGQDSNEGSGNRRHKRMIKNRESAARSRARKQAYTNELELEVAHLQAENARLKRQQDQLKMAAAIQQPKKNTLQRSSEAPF

[5] = target: FD-C_T282E;14-3-3nu (GRF7);TFL1 (Arabidopsis thaliana;Arabidopsis …, UniProt Q84JK2;Q96300;P93003 203-285;1-265;1-177, T282E||)
Sequence of FD-C_T282E;14-3-3nu (GRF7);TFL1 (P93003 whole entry, stated change not applied, one chain of several): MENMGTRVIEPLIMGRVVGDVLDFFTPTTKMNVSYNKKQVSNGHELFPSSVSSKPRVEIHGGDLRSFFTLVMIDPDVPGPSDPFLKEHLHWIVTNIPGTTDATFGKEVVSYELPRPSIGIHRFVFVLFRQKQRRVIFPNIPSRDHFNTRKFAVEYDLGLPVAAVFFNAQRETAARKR

[6] = target: T5, FD-C_T282E;14-3-3nu (GRF7);FT (Arabidopsis thaliana;Arabidopsis …, UniProt Q84JK2;Q96300;Q9SXZ2 203-285;1-265;1-175, T282E||)
T5 sequence (Q9SXZ2 whole entry, stated change not applied, one chain of several): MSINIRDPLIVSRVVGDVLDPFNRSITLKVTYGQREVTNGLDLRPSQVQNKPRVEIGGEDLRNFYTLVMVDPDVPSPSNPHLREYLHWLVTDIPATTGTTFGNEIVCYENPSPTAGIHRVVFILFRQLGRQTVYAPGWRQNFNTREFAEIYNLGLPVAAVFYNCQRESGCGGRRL

[7] = target: FD-C;14-3-3nu (GRF7);TFL1 (Arabidopsis thaliana;Arabidopsis …, UniProt Q84JK2;Q96300;P93003 203-285;1-265;1-177, ||)
Sequence of FD-C;14-3-3nu (GRF7);TFL1 (P93003 whole entry, one chain of several): as the sequence (P93003 whole entry, stated change not applied, one chain of several) above

[8] = target: T6, FD-C (Arabidopsis thaliana, UniProt Q84JK2 203-285)
T6 sequence: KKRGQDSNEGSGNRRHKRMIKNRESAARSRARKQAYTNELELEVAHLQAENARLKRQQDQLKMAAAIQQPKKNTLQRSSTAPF

[9] = target: T2, FD full-length; remark: listed apart in the source
[10] = target: T5, FD-C_T282E;14-3-3nu (GRF7);FT; remark: listed apart in the source

B1: SEP3 promoter G-box probe (dsDNA)
DNA 1: CGAGATGTCGACACGTGTCCAAACTCAT
DNA 2: ATGAGTTTGGACACGTGTCGACATCTCG
binding result [1]: binds
binding result [2]: binds
binding result [3]: binds
binding result [4]: binds
binding result [5]: binds
binding result [6]: binds
binding result [7]: binds

B2: SEP3 G-box CG to GC (CAGCTG) (dsDNA)
DNA 1: CGAGATGTCGACAGCTGTCCAAACTCAT
DNA 2: ATGAGTTTGGACAGCTGTCGACATCTCG
binding result [8]: binds
binding result [9]: binds

B3: SEP3 G-box CG to TA (CATATG) (dsDNA)
DNA 1: CGAGATGTCGACATATGTCCAAACTCAT
DNA 2: ATGAGTTTGGACATATGTCGACATCTCG
binding result [8]: no binding
binding result [9]: no binding

B4: SEP3 G-box to C-box (GACGTC) (dsDNA)
DNA 1: CGAGATGTCGAGACGTCTCCAAACTCAT
DNA 2: ATGAGTTTGGAGACGTCTCGACATCTCG
binding result [8]: no binding
binding result [9]: no binding

B5: AP1 promoter site 2 (dsDNA)
DNA 1: TACCAATGAGAAGTCGACACGCAAATCCTA
DNA 2: TAGGATTTGCGTGTCGACTTCTCATTGGTA
binding result [3]: binds
binding result [5]: binds
binding result [10]: binds
